The Kd is the concentration at which binding is half-saturated. Low readings indicate higher affinity, high ones lower affinity.

Numbering of substitutions follows the chain as printed.

Consider 53 molecules from patent publication US20240141072A1 (published 2024).

T1: biotinylated human DLL3 protein expressed as a human IgG1 fusion protein (human, UniProt Q9NYJ7 27-492, limits assumed, biotinylated)
T1 sequence: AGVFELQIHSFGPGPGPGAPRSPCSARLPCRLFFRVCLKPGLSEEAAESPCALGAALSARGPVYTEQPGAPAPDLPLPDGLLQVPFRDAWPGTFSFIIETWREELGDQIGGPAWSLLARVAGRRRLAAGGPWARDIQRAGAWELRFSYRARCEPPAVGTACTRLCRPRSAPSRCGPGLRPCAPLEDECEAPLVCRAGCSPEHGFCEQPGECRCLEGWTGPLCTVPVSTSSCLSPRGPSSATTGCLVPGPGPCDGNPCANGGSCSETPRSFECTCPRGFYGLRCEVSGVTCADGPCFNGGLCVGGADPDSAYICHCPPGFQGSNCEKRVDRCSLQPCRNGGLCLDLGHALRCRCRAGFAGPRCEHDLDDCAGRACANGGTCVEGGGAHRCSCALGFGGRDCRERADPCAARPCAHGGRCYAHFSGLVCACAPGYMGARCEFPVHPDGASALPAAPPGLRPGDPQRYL

B1: 1C07 anti-DLL3 trispecific protein (other)
chain: EVQLVESGGGLVQPGGSLTLSCVASGSTSSINAMAWYRRAPGKQRELVAGISSDGSKVYADSVKGRFTISRDNAKNSVYLQMNSLRAEDTAVYYCYYFRTVSGSSMRYWGQGTLVTVSS
notes: not shown: linker 1808, anti-albumin sdAb, linker 1808, anti-CD3 fragment, His6 1819
B2: 1C04 anti-DLL3 trispecific protein (other)
chain: B1 chain with S27N
notes: as for B1
B3: 1A05 anti-DLL3 trispecific protein (other)
chain: B1 chain with T28P, A35G, V48S, S102R, R107S
notes: as for B1
B4: 1F06 anti-DLL3 trispecific protein (other)
chain: B1 chain with S27T, A35G, Y59I, S102L
notes: as for B1
B5: 1B09 anti-DLL3 trispecific protein (other)
chain: B1 chain with A60V
notes: as for B1
B6: 1E012 anti-DLL3 trispecific protein (other)
chain: B1 chain with I31T, A35G, A60V, R107V
notes: as for B1
B7: 1A06 anti-DLL3 trispecific protein (other)
chain: B1 chain with A35G, V48A, K57S, M106K
notes: as for B1
B8: 1B03 anti-DLL3 trispecific protein (other)
chain: B1 chain with S27K, A60T, M106A
notes: as for B1
B9: 1D09 anti-DLL3 trispecific protein (other)
chain: B1 chain with A60T, V101I
notes: as for B1
B10: 1B010 anti-DLL3 trispecific protein (other)
chain: B1 chain with S30R, A35G, V101K
notes: as for B1
B11: 1C010 anti-DLL3 trispecific protein (other)
chain: B1 chain with S30R, A35G, I51V, R107S
notes: as for B1
B12: 1C012 anti-DLL3 trispecific protein (other)
chain: B1 chain with S27I, A35G, D61G, S102R
notes: as for B1
B13: 1E02 anti-DLL3 trispecific protein (other)
chain: B1 chain with S27Q, A35G, K57Q, V101K
notes: as for B1
B14: 1D01 anti-DLL3 trispecific protein (other)
chain: B1 chain with S30D, A35G, G55K, S102R
notes: as for B1
B15: 1A01 anti-DLL3 trispecific protein (other)
chain: B1 chain with S27F, A35G, K57F, T100H
notes: as for B1
B16: 1A03 anti-DLL3 trispecific protein (other)
chain: B1 chain with M106S
notes: as for B1
B17: 1E010 anti-DLL3 trispecific protein (other)
chain: B1 chain with T28V, A35G, A60I, S104L
notes: as for B1
B18: 1A04 anti-DLL3 trispecific protein (other)
chain: B1 chain with A35G, A60E
notes: as for B1
B19: 1C06 anti-DLL3 trispecific protein (other)
chain: B1 chain with S30I, A35G, A60E, T100A
notes: as for B1
B20: 1B08 anti-DLL3 trispecific protein (other)
chain: B1 chain with S27T, A35G, A60V, T100F
notes: as for B1
B21: 1E07 anti-DLL3 trispecific protein (other)
chain: B1 chain with A60N, S102R, M106Q
notes: as for B1
B22: 1B02 anti-DLL3 trispecific protein (other)
chain: B1 chain with A35G, V58I
notes: as for B1
B23: 1E09 anti-DLL3 trispecific protein (other)
chain: B1 chain with A60T, V101R
notes: as for B1
B24: 1B011 anti-DLL3 trispecific protein (other)
chain: B1 chain with S30R, A35G, S102Y
notes: as for B1
B25: 1D04 anti-DLL3 trispecific protein (other)
chain: B1 chain with I31K, A35G, S104A
notes: as for B1
B26: 1C02 anti-DLL3 trispecific protein (other)
chain: B1 chain with A60S, Y108S
notes: as for B1
B27: 1C011 anti-DLL3 trispecific protein (other)
chain: B1 chain with S27T, A35G, A60E
notes: as for B1
B28: 1C01 anti-DLL3 trispecific protein (other)
chain: B1 chain with A35G, A60R, R107G
notes: as for B1
B29: 1E04 anti-DLL3 trispecific protein (other)
chain: B1 chain with S30R, A33G, A35G, V48P, V58A, V101A, S104T
notes: as for B1
B30: 1D011 anti-DLL3 trispecific protein (other)
chain: B1 chain with G55N, S104H
notes: as for B1
B31: 1F05 anti-DLL3 trispecific protein (other)
chain: B1 chain with S29R, A35G, R99H
notes: as for B1
B32: 1D08 anti-DLL3 trispecific protein (other)
chain: B1 chain with S27L, A35G, T100M
notes: as for B1
B33: 1F02 anti-DLL3 trispecific protein (other)
chain: B1 chain with V48A, G55Q, V63A, R107S
notes: as for B1
B34: 1D03 anti-DLL3 trispecific protein (other)
chain: B1 chain with M34I, A35G, Y59L, T100I, R107G
notes: as for B1
B35: 1B04 anti-DLL3 trispecific protein (other)
chain: B1 chain with S27T, A35G, K57L, T100I, S102R
notes: as for B1
B36: 1E05 anti-DLL3 trispecific protein (other)
chain: B1 chain with S30V, V48A, D61K, V63A, R99N
notes: as for B1
B37: 1A09 anti-DLL3 trispecific protein (other)
chain: B1 chain with V58L, S102Q
notes: as for B1
B38: 1C05 anti-DLL3 trispecific protein (other)
chain: B1 chain with S105H
notes: as for B1
B39: 1A010 anti-DLL3 trispecific protein (other)
chain: B1 chain with M34Y, A35G, S102Y
notes: as for B1
B40: 1D012 anti-DLL3 trispecific protein (other)
chain: B1 chain with S30H, A35G, K57R, S104G
notes: as for B1
B41: 1D010 anti-DLL3 trispecific protein (other)
chain: B1 chain with I31N, A60T, V101R
notes: as for B1
B42: 1E011 anti-DLL3 trispecific protein (other)
chain: B1 chain with S27N, A35G, A60Y, S102R, M106Q
notes: as for B1
B43: 1D02 anti-DLL3 trispecific protein (other)
chain: B1 chain with D54N, T100Q
notes: as for B1
B44: 1C08 anti-DLL3 trispecific protein (other)
chain: B1 chain with S30R, A35G, V48P, D61V, S105P
notes: as for B1
B45: 1D06 anti-DLL3 trispecific protein (other)
chain: B1 chain with A35G, G55N, S102H
notes: as for B1
B46: 1A07 anti-DLL3 trispecific protein (other)
chain: B1 chain with T28I, A35G, T100M
notes: as for B1
B47: 1F04 anti-DLL3 trispecific protein (other)
chain: B1 chain with S27G, A35G, A60S, M106A
notes: as for B1
B48: 1B05 anti-DLL3 trispecific protein (other)
chain: B1 chain with F98Y
notes: as for B1
B49: 1E08 anti-DLL3 trispecific protein (other)
chain: B1 chain with S27K, A35G, Y59I, S102L
notes: as for B1
B50: 1A012 anti-DLL3 trispecific protein (other)
chain: B1 chain with A60S, S102L
notes: as for B1
B51: 1B07 anti-DLL3 trispecific protein (other)
chain: B1 chain with T28G, A35G, A60S, T100H
notes: as for B1
B52: 1F01 anti-DLL3 trispecific protein (other)
chain: B1 chain with A35G, A60G, G103R
notes: as for B1
B53: 1B01 anti-DLL3 trispecific protein (other)
chain: B1 chain with S30I, A35G, V48A, Y59I, T100R
notes: as for B1

This assay has as its target T1, biotinylated human DLL3 protein …. Put plainly: Octet BLI, single 50 nM. The procedure:
Using the conditioned medium with known concentrations of the anti-DLL3 trispecific proteins, the binding affinities of the anti-DLL3 trispecific proteins toward human DLL3 protein were measured using a method where biotinylated version of human DLL3 protein were expressed as a human IgG1 fusion protein, and the binding affinity measurement was carried out in an Octet instrument with streptavidin tips.
On the technique in general: BLI is a label-free optical method that tracks binding on a fibre tip over time.
The molecule B1 returned a Kd of 7.1 nM.
For B2, the affinity, expressed as Kd, was 8.1 nM.
Molecule B3 registered a dissociation constant Kd of 4 nM.
In the case of B4 it was 8.9 nM.
Regarding B5, the Kd is 5.4 nM.
Take B6: the Kd was found to be 5.3 nM.
In the case of B7 it was 5.6 nM.
For B8, the Kd came to 8.7 nM.
For the molecule B9, binding was characterised by a dissociation constant (Kd) of 5.2 nM.
Take B10: binding was characterised by a dissociation constant (Kd) of 6.8 nM.
The value for B11 was 2.5 nM; that for B12 was 8.5 nM; that for B13 was 7 nM.
B14 returned a Kd of 5.8 nM.
B15: the equilibrium dissociation constant (Kd) was 7 nM.
The molecule B16 gave a dissociation constant (Kd) of 6.3 nM.
B17 came in with a Kd of 5.7 nM.
Molecule B18 gave a Kd of 7.8 nM.
The molecule B19 registered a Kd of 8.3 nM.
The molecule B20 yielded a dissociation constant Kd of 12 nM.
The value for B21 was 7.1 nM; that for B22 was 11 nM; that for B23 was 4.4 nM.
B24 gave a dissociation constant (Kd) of 5.7 nM.
On to B25, for which binding was characterised by a dissociation constant (Kd) of 9.7 nM.
The value for B26 was 6.2 nM.
Molecule B27 had a Kd of 7.6 nM.
The molecule B28 returned a Kd of 4.3 nM.
Turning to B29, binding was put at a Kd of 8.1 nM.
In turn, B30 returned a Kd of 4.4 nM.
As for B31, the Kd worked out at 5.8 nM.
With B32, the Kd worked out at 10 nM.
B33: the Kd amounted to 4 nM.
The value for B34 was 5.8 nM.
The value for B35 was 11 nM; that for B36 was 14 nM.
In the case of B37 it was 6.6 nM.
In the case of B38, the dissociation constant Kd stood at 5.3 nM.
In the case of B39 it was 6.5 nM; in that of B40, 9.3 nM.
For B41, the Kd is 5 nM.
Regarding B42, the equilibrium dissociation constant (Kd) came out at 2.7 nM.
In the case of B43 it was 14 nM; in that of B44, 25 nM; in that of B45, 6.8 nM.
Turning to B46, the Kd is 8.6 nM.
In the case of B47 it was 10 nM.
For the molecule B48, the dissociation constant Kd is 8 nM.
In turn, B49 displayed a dissociation constant (Kd) of 9.4 nM.
The molecule B50 returned a dissociation constant (Kd) of 4.9 nM.
In the case of B51, binding was characterised by a dissociation constant (Kd) of 8.9 nM.
Regarding B52, the Kd was found to be 9.4 nM.
B53 showed a dissociation constant Kd of 5.2 nM.
